Test results reported in EP4806919A1 (Cells & Genes Biotech (Shanghai) Co., Ltd, dated 2026).
Several values for one entry are separate records, joined by “and”; a condition that tells them apart may be missing. Equal values may be shown once.

Assays:
[1] = biological target: BCMA on cell surface of BCMA-positive cells (NCI-H929; RPMI-8226) (UniProt Q02223); experiment: flow cytometry on NCI-H929 cells, control without nanobody
[2] = biological target: Cyno BCMA-His antigen (cyno (monkey)); experiment: phage ELISA, antigen coated 100 ng/well, Anti-M13 HRP
[3] = biological target: Human BCMA-His recombinant protein (human) (UniProt Q02223); experiment: as above
[4] = biological target: T1, Human BCMA-His recombinant protein (human, UniProt Q02223 1-54); experiment: ELISA, Human BCMA His coated 200 ng/well, anti-human Fc HRP
T1 construct: Supplied reagent (Chengdu Shengshi Junlian Biotechnology, Cat# BCA-H522y); also called Cat# BCA-H522y; not shown: His tag
T1 sequence (looked up): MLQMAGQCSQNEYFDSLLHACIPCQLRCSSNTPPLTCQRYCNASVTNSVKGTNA

[5] = biological target: T1, Human BCMA-His recombinant protein; experiment: ELISA, Human-BCMA-His coated 200 ng/well
[6] = biological target: BCMA on cell surface of BCMA-positive cells (NCI-H929; RPMI-8226) (UniProt Q02223); experiment: flow cytometry on NCI-H929 cells, antibody 10 ug/ml, PE anti-human Fc
[7] = biological target: BCMA on cell surface of BCMA-positive cells (NCI-H929; RPMI-8226) (UniProt Q02223); experiment: flow cytometry on NCI-H929 cells, antibody 10 ug/mL

Cyno BCMA-His antigen (cyno (monkey)), sequence (chain, as listed by the source): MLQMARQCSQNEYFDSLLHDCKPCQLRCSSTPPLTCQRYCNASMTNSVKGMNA

hIgG Fc-PE (antibody)
NCI-H929 Positive Rate% [1]: 0.04%

B1: BC-HC-15 (positive phage clone, VHH displayed on phage) (VHH)
VHH: EVQLVQSGGGSVQAGGSLRLSCAASGGDISSTFMGWFRQAPGKEREGVAAIYTGDGTTDYADSVKGRFTIAQDNAKNTVYLEMSRLKPEDTALYYCATGLDGSGSVFSPRSFRYWGQGTQVTVSS
OD (phage ELISA, monkey) [2]: 1.79 OD450 | OD (phage ELISA, human) [3]: 2.11 OD450

B2: BC-HC-15 nanobody, recombinant VHH-hIgG1Fc antibody (Fc fusion)
chain: B1 VHH
notes: also called VHH-hFC; not shown: human IgG1 Fc (hIgG1Fc) from the pVHH-hIgG1Fc expression plasmid
EC50 [4]: 0.605 µg/mL and 7.57 nM | EC50 [5]: < 10 nM | NCI-H929 Positive Rate% [6]: 99.9% | positive binding rate [7]: > 95%
